This is an account of results in publication doi:10.1101/340133.

Experiment [1] has as its target dynamic microtubules polymerized from αβ-tubulin on GMPCPP seeds (porcine) (UniProt P02554). Briefly: TIRF microscopy of dynamic microtubules.
For experiment [2] the target is unchanged. Nature of the experiment: single molecule TIRF microscopy of dynamic microtubules.

Chain of UniProt P02554 (P02554 whole entry, looked up): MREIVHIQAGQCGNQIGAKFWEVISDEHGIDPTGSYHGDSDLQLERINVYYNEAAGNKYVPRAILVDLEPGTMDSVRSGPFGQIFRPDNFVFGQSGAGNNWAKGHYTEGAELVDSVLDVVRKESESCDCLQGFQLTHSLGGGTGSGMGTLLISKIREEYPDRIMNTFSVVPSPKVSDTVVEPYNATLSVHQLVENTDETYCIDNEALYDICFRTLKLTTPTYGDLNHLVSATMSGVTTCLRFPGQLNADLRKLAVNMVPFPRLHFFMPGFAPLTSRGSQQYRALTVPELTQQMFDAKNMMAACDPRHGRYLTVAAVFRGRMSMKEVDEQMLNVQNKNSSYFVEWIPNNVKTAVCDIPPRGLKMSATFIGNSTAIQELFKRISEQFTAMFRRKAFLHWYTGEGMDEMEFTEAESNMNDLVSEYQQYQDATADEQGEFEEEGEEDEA

B1: wt-Alp14 (residues 1-690) with C-terminal mNeonGreen (domain or fragment)
chain: MSQDQEEDYSKLPLESRIVHKVWKVRLSAYEECSKSFSLSADGSDNCFELWNNQSELWKSVLTDSNVAAQEAGTAAFVAYCRFSDPSHLLKAREISVLSISEKCLTSPRAGTRENALEALMLLVEADSAAPVIESIIPSLSARSPKVIASNVAAIASLVEQFGAKVIPSKMIIPHISNLFGHADKNVRKEASRLTVNIYRWTGDPLKDLLFKDLRPVQTKELESLFAELPTEPPKQTRFLKSQQPTSEPNVETQVEEQPALENEESEPEPSDDQFDLVEEVDVLPNVDPNLETLMASSKWKDRKEALDKLLPVLSQPKIKDNDFFNLVAILTKSVSKDANIMVVINAAHCIQAMAKGLRSNFSKYASTSINALLERSKEKKANVIESLSSAMDAVLATSSLDDLAELIASFAGNKNPQIKSSCFSLFSRSFSNMTSLPSKFTVDTCAKACVPGVSDTFEPVRSAAAEALGVLMKLVGERAINQYLSPLDDIRKSKIRSFYETATVKAKAPTKKSKVKPSKQEESKVVVPSNAKAVKKSVVPSSPVVPSPRKATNKSLSMDVSKGNAFENGPLLPRPTTRPVSRGLSRGTSSSLQQKVKASTPLNSGALNETVQNLKNMELDDPAPQPAKHSRVDRYEHPKVLEDNDSTISSLESLKRENEELREQLKVEHEENISMQKQLSELKGELNTL
As to B1, in experiment [1], the residence ratio at MT plus-ends (average) amounted to 89.4%.

B2: C-terminally SNAPf-tagged wt-Alp14 (residues 1-690) (domain or fragment)
chain: MSQDQEEDYSKLPLESRIVHKVWKVRLSAYEECSKSFSLSADGSDNCFELWNNQSELWKSVLTDSNVAAQEAGTAAFVAYCRFSDPSHLLKAREISVLSISEKCLTSPRAGTRENALEALMLLVEADSAAPVIESIIPSLSARSPKVIASNVAAIASLVEQFGAKVIPSKMIIPHISNLFGHADKNVRKEASRLTVNIYRWTGDPLKDLLFKDLRPVQTKELESLFAELPTEPPKQTRFLKSQQPTSEPNVETQVEEQPALENEESEPEPSDDQFDLVEEVDVLPNVDPNLETLMASSKWKDRKEALDKLLPVLSQPKIKDNDFFNLVAILTKSVSKDANIMVVINAAHCIQAMAKGLRSNFSKYASTSINALLERSKEKKANVIESLSSAMDAVLATSSLDDLAELIASFAGNKNPQIKSSCFSLFSRSFSNMTSLPSKFTVDTCAKACVPGVSDTFEPVRSAAAEALGVLMKLVGERAINQYLSPLDDIRKSKIRSFYETATVKAKAPTKKSKVKPSKQEESKVVVPSNAKAVKKSVVPSSPVVPSPRKATNKSLSMDVSKGNAFENGPLLPRPTTRPVSRGLSRGTSSSLQQKVKASTPLNSGALNETVQNLKNMELDDPAPQPAKHSRVDRYEHPKVLEDNDSTISSLESLKRENEELREQLKVEHEENISMQKQLSELKGELNTL
modifications: SNAP-Surface Atto 488 covalently attached to the SNAPf tag (5-10 nM labeled diluted into 190-195 nM non-labeled)
For B2, the dwell time at MT plus-ends in experiment [2] was 129 s.

B3: SNAPf-tagged TOG1M Alp14 (residues 1-690) (domain or fragment)
chain: MSQDQEEDYSKLPLESRIVHKVAKVRLSAYEECSKSFSLSADGSDNCFELWNNQSELWKSVLTDSNVAAQEAGTAAFVAYCRFSDPSHLLKAREISVLSISEKCLTSPAAGTRENALEALMLLVEADSAAPVIESIIPSLSARSPKVIASNVAAIASLVEQFGAKVIPSKMIIPHISNLFGHADKNVRKEASRLTVNIYAWTGDPLKDLLFKDLRPVQTKELESLFAELPTEPPKQTRFLKSQQPTSEPNVETQVEEQPALENEESEPEPSDDQFDLVEEVDVLPNVDPNLETLMASSKWKDRKEALDKLLPVLSQPKIKDNDFFNLVAILTKSVSKDANIMVVINAAHCIQAMAKGLRSNFSKYASTSINALLERSKEKKANVIESLSSAMDAVLATSSLDDLAELIASFAGNKNPQIKSSCFSLFSRSFSNMTSLPSKFTVDTCAKACVPGVSDTFEPVRSAAAEALGVLMKLVGERAINQYLSPLDDIRKSKIRSFYETATVKAKAPTKKSKVKPSKQEESKVVVPSNAKAVKKSVVPSSPVVPSPRKATNKSLSMDVSKGNAFENGPLLPRPTTRPVSRGLSRGTSSSLQQKVKASTPLNSGALNETVQNLKNMELDDPAPQPAKHSRVDRYEHPKVLEDNDSTISSLESLKRENEELREQLKVEHEENISMQKQLSELKGELNTL
modifications: SNAP-Surface Atto 488 covalently attached to the SNAPf tag
As to B3, the dwell time at MT plus-ends in experiment [2] came to 57.4 s.

B4: TOG1 inactivated Alp14 (TOG1M), residues 1-690, with C-terminal mNeonGreen (domain or fragment)
chain: MSQDQEEDYSKLPLESRIVHKVAKVRLSAYEECSKSFSLSADGSDNCFELWNNQSELWKSVLTDSNVAAQEAGTAAFVAYCRFSDPSHLLKAREISVLSISEKCLTSPAAGTRENALEALMLLVEADSAAPVIESIIPSLSARSPKVIASNVAAIASLVEQFGAKVIPSKMIIPHISNLFGHADKNVRKEASRLTVNIYAWTGDPLKDLLFKDLRPVQTKELESLFAELPTEPPKQTRFLKSQQPTSEPNVETQVEEQPALENEESEPEPSDDQFDLVEEVDVLPNVDPNLETLMASSKWKDRKEALDKLLPVLSQPKIKDNDFFNLVAILTKSVSKDANIMVVINAAHCIQAMAKGLRSNFSKYASTSINALLERSKEKKANVIESLSSAMDAVLATSSLDDLAELIASFAGNKNPQIKSSCFSLFSRSFSNMTSLPSKFTVDTCAKACVPGVSDTFEPVRSAAAEALGVLMKLVGERAINQYLSPLDDIRKSKIRSFYETATVKAKAPTKKSKVKPSKQEESKVVVPSNAKAVKKSVVPSSPVVPSPRKATNKSLSMDVSKGNAFENGPLLPRPTTRPVSRGLSRGTSSSLQQKVKASTPLNSGALNETVQNLKNMELDDPAPQPAKHSRVDRYEHPKVLEDNDSTISSLESLKRENEELREQLKVEHEENISMQKQLSELKGELNTL
As to B4, in experiment [1], the residence ratio at MT plus-ends (average) was found to be 72.4%.
